Measurements as given in the supplement of paper PMC9170038.

System: MS2 coat protein
Test: apparent KD of MS2 coat protein; higher = weaker reporter binding
Conditions: Eterna round: R107
Summary of the method: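 Normalised binding curves from single clusters were fitted, and the median fit for each design is given as apparent KD. The clusters held designed RNA switches transcribed on-chip from Illumina sequencing clusters. These were titrated with SNAP-549-labelled MS2 coat protein (twofold steps from 0.7 or 1.5 nM to 3 µM, 0.8–1.5 h to 10–20 min per step) in 100 mM Tris-HCl pH 7.5, 80 mM KCl, 4 mM MgCl2, without or with constant ligand.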

[1] = input ligand: theophylline 20 uM
[2] = input ligand: tryptophan 2.4 mM
[3] = input ligand: theophylline 2 mM

## ACGACGCAUAGUGAUACCAGUAGAACAUGAGGAUCACCCAUGUCUGUGACGCACAAAUUCUGCCCUUGGCAGCACUAUGCGUCAG [SSTheo B #6]
Input ligand: arginine 13.2 mM
  apparent KD of MS2 coat protein: 0.0126 µM
[1]
  apparent KD of MS2 coat protein: 0.0181 µM
[2]
  apparent KD of MS2 coat protein: 0.0121 µM

## UGGUACAUGAGGAUCACCCAUGUUCCAGAUACCAGUGUCCCGGUGCACCCUUGGCAGCUGGUGGUACAUGAGGAUCACCCAUGUG [Exclusion Theophylline A GF13]
Input ligand: arginine 13.2 mM
  apparent KD of MS2 coat protein: 0.0179 µM
Input ligand: none
  apparent KD of MS2 coat protein: 0.0422 µM
[1]
  apparent KD of MS2 coat protein: 0.0563 µM
[3]
  apparent KD of MS2 coat protein: 0.0731 µM
[2]
  apparent KD of MS2 coat protein: 0.0373 µM

## AAUUCCUAACAUGAGGAUCACCCAUGUGAAGGAGCGCGGAAUAACGCAGGUAGGUCGCACAUGGAACCGCUGCGAUAGCAGCAAA [MAT - Exclusion Arginine A - Mod of Eli - D29]
Input ligand: arginine 13.2 mM
  apparent KD of MS2 coat protein: 0.00866 µM
Input ligand: none
  apparent KD of MS2 coat protein: 0.0144 µM
[1]
  apparent KD of MS2 coat protein: 0.0133 µM
[3]
  apparent KD of MS2 coat protein: 0.014 µM
[2]
  apparent KD of MS2 coat protein: 0.0125 µM

## UUAAUCAUAUAUGAAAACAUAUAUGCAGAAGGAGCGUGAUAAAACACAGGUAGGUCGCUGAAGGGAACAUGAGGAUCACCCAUGU [AstrosSSArgA#2]
Input ligand: arginine 13.2 mM
  apparent KD of MS2 coat protein: 0.0474 µM
Input ligand: none
  apparent KD of MS2 coat protein: 0.0248 µM
[1]
  apparent KD of MS2 coat protein: 0.049 µM
[3]
  apparent KD of MS2 coat protein: 0.0315 µM
[2]
  apparent KD of MS2 coat protein: 0.0324 µM

## UCGCAUUGCUCAGAUACCAGACAUGAGGAUCACCCAUGUACCAAGGUAACCGAAAGGCAUGUCCCUUGGCAGCUGAGCAAUGCGU [MAT - Exclusion Theophlline B - Mod of Eli - D14]
Input ligand: arginine 13.2 mM
  apparent KD of MS2 coat protein: 0.0124 µM
[1]
  apparent KD of MS2 coat protein: 0.0211 µM
[2]
  apparent KD of MS2 coat protein: 0.0131 µM

## ACAUGAGGAUCACCCAUGUACAUCACCCGACGAGGACCGGUACGGCCGCCACUCGGGUAUAUAUAUACAUCGGGUGAUUUUACGU [#22 Tryptophan A Same State]
Input ligand: arginine 13.2 mM
  apparent KD of MS2 coat protein: 0.0274 µM
[1]
  apparent KD of MS2 coat protein: 0.0574 µM
[3]
  apparent KD of MS2 coat protein: 0.0641 µM

## ACCUACACGGAGACGUGUAGGAGUAAUGAUACCAGCAUGGAGACAUGCCCUUGGCAGCGUUACAUGAGGAUCACCCAUGUAGUGC [ETHA #5]
Input ligand: arginine 13.2 mM
  apparent KD of MS2 coat protein: 0.0104 µM
Input ligand: none
  apparent KD of MS2 coat protein: 0.0107 µM
[1]
  apparent KD of MS2 coat protein: 0.0142 µM
[3]
  apparent KD of MS2 coat protein: 0.0128 µM
[2]
  apparent KD of MS2 coat protein: 0.0129 µM

## UUCUACAUGAGGAUCACCCAUGUGGGUGAUACCAGCACUUUUUGGUGCCCUUGGCAGCACAUGAGAAUACCGUACGAUCGGCGAU [Arainbi]
Input ligand: arginine 13.2 mM
  apparent KD of MS2 coat protein: 0.122 µM
[1]
  apparent KD of MS2 coat protein: 0.5 µM
[2]
  apparent KD of MS2 coat protein: 0.609 µM

## AAACUGAUCUUCAGGAGUCACUAUAUCUCCCGAGGACCGGUACGGCCGCCACUCGAACGUUUACAUGAGGAUCACCCAUGUGACU [theeternabot_exclusion_MS2_Trp_A_4]
Input ligand: arginine 13.2 mM
  apparent KD of MS2 coat protein: 0.0136 µM
[1]
  apparent KD of MS2 coat protein: 0.0164 µM
[3]
  apparent KD of MS2 coat protein: 0.0149 µM

## AGAAUAACACAUGAGGAUCACCCAUGUGAUACCAGCUAGGAAACUAGCCCUUGGCAGCACAUAAUCCUCAUGAAUGUGCUGAAUA [(M1)-(M2)-(T1)-(T2)-(M)'-(T)'_Design3_2/19/17]
Input ligand: arginine 13.2 mM
  apparent KD of MS2 coat protein: 0.0373 µM
[1]
  apparent KD of MS2 coat protein: 0.121 µM
[2]
  apparent KD of MS2 coat protein: 0.0597 µM

## UACAUAUGCCGAAGGAGCGUGAGAUGCAAAGCAUCAUUCCUCACAUGAGGAUCACCCAUGUCACAGGUAGGUCGCGGCAUAUGUU [ArgBX 3]
Input ligand: arginine 13.2 mM
  apparent KD of MS2 coat protein: 0.0943 µM
Input ligand: none
  apparent KD of MS2 coat protein: 0.09 µM
[1]
  apparent KD of MS2 coat protein: 0.115 µM
[3]
  apparent KD of MS2 coat protein: 0.117 µM
[2]
  apparent KD of MS2 coat protein: 0.0969 µM

## AUAAUGGGUUUCGGACUAUCAUGGAAUGAUACCAGAUACUUAGAAAUCCCUUGGCAGCAUGAGGACAUGAGGAUCACCCAUGUAU [Th A Ex t1]
Input ligand: arginine 13.2 mM
  apparent KD of MS2 coat protein: 0.0419 µM
[1]
  apparent KD of MS2 coat protein: 0.0789 µM
[2]
  apparent KD of MS2 coat protein: 0.0714 µM

## CACAUGAGGAUCACCCAUGUCUGAACUGAAGGAGCGCUAAAUAAGGCAGGUAGGUCGCGGAAUUUUGUGUGCAUAUGCAUAUGGG [9.M]
Input ligand: arginine 13.2 mM
  apparent KD of MS2 coat protein: 0.0238 µM
Input ligand: none
  apparent KD of MS2 coat protein: 0.0268 µM
[1]
  apparent KD of MS2 coat protein: 0.0372 µM
[3]
  apparent KD of MS2 coat protein: 0.0342 µM
[2]
  apparent KD of MS2 coat protein: 0.0288 µM

## GGUCUCUGGAGCGAUACCAGCUUGAGUGUACUGGCCAGGUACAUGAGGAUCACCCAUGUAAGCCCUUGGCAGCGCUGCAGAGACC [#1 Exclusion - Theophylline B Attempt #16 (HarryS)]
Input ligand: arginine 13.2 mM
  apparent KD of MS2 coat protein: 0.00975 µM
[1]
  apparent KD of MS2 coat protein: 0.015 µM
[2]
  apparent KD of MS2 coat protein: 0.0112 µM

## AAUUCCGGGUCGGCCGCCACUGAUAUGGCGAGUCCUCGAACUUACAUGAGGAUCACCCAUGUAAACAGGACCGGGACCGCAUGGG [Exclusion Tryptophan B GF 23]
Input ligand: arginine 13.2 mM
  apparent KD of MS2 coat protein: 0.0163 µM
[1]
  apparent KD of MS2 coat protein: 0.0284 µM
[3]
  apparent KD of MS2 coat protein: 0.0204 µM

## AGAUUACAUGUUUUAAUAAGAUAAACUGAUACCAGUGUAUAUAUUCACCCUUGGCAGCAGCAACAUGAGGAUCACCCAUGUAUUA [JR_SSTheophyA_Sub015]
Input ligand: arginine 13.2 mM
  apparent KD of MS2 coat protein: 0.0144 µM
[1]
  apparent KD of MS2 coat protein: 0.0187 µM
[2]
  apparent KD of MS2 coat protein: 0.0167 µM

## UUCGUAUUGUCGGCCGCCACUGCAACAUGAGGAUCACCCAUGUAAGAAUGGUUGUAAAUAUAUUACAGGACCGGGACAAUAGUAA [JR_ExcTryptoB_Sub018]
Input ligand: arginine 13.2 mM
  apparent KD of MS2 coat protein: 0.016 µM
[1]
  apparent KD of MS2 coat protein: 0.0241 µM
[3]
  apparent KD of MS2 coat protein: 0.0234 µM

## UGUAACAUGAGGAUCACCCAUGUGCACGAUACCAGCUUAUUGAUAGGCCCUUGGCAGCGUAUGCGGAAGCUGUAUAAUAUAUAUC [#27 SameState-TheophyllineA]
Input ligand: arginine 13.2 mM
  apparent KD of MS2 coat protein: 0.0103 µM
[1]
  apparent KD of MS2 coat protein: 0.0186 µM
[2]
  apparent KD of MS2 coat protein: 0.0108 µM

## AUCGUACCUGGUGAUACCAGCAAUUGCUCGUGACAUGAGGAUCACCCAUGUGACCAGUGAUGCCCUUGGCAGCAUGGUCGGUGCA [Same State - Theophylline B (Freestyle 23)]
Input ligand: arginine 13.2 mM
  apparent KD of MS2 coat protein: 0.0368 µM
[1]
  apparent KD of MS2 coat protein: 0.0653 µM
[2]
  apparent KD of MS2 coat protein: 0.0612 µM

## UUACAUGAGGAUCACCCAUGUCAUACAGAAGGAGCGUCACAUAAGACAGGUAGGUCGCUGUUAUUUUUUACUAUUAUAUCCUCUA [JR_Nu_ExcArginiA_Sub030]
Input ligand: arginine 13.2 mM
  apparent KD of MS2 coat protein: 0.025 µM
Input ligand: none
  apparent KD of MS2 coat protein: 0.0308 µM
[1]
  apparent KD of MS2 coat protein: 0.0458 µM
[3]
  apparent KD of MS2 coat protein: 0.0317 µM
[2]
  apparent KD of MS2 coat protein: 0.0259 µM

## AAAUAAAUACAUGAGGAUCACCCAUGUGAAGGAGCGCCCGUUAGGGCAGGUAGGUCGCACAUGAACUCCAAGCGAAAGAAAUAAU [ArgEX 16 #OpenEnded]
Input ligand: arginine 13.2 mM
  apparent KD of MS2 coat protein: 0.0236 µM
Input ligand: none
  apparent KD of MS2 coat protein: 0.0183 µM
[1]
  apparent KD of MS2 coat protein: 0.0239 µM
[3]
  apparent KD of MS2 coat protein: 0.0227 µM
[2]
  apparent KD of MS2 coat protein: 0.0164 µM

## AGUCUUGAACGAAGGAGCGACGUACAUGAGGAUCACCCAUGUGUGGAGCGAAAGCUCCAACGUCAGGUAGGUCGCGUUCGAGACA [Omei Arginine B SS A v2]
Input ligand: arginine 13.2 mM
  apparent KD of MS2 coat protein: 0.0149 µM
Input ligand: none
  apparent KD of MS2 coat protein: 0.0128 µM
[1]
  apparent KD of MS2 coat protein: 0.018 µM
[3]
  apparent KD of MS2 coat protein: 0.0149 µM
[2]
  apparent KD of MS2 coat protein: 0.0139 µM

## UCGCUCUGGGUGAAUUCCGGAGAUGUGGAAGGAGCGGACGAAAGUCCAGGUAGGUCGCCAUCGGACAUGAGGAUCACCCAUGUAC [Same State - Arginine A (Freestyle 22)]
Input ligand: arginine 13.2 mM
  apparent KD of MS2 coat protein: 0.0556 µM
Input ligand: none
  apparent KD of MS2 coat protein: 0.122 µM
[1]
  apparent KD of MS2 coat protein: 0.0998 µM
[3]
  apparent KD of MS2 coat protein: 0.1 µM
[2]
  apparent KD of MS2 coat protein: 0.0899 µM

## UAAUGUGAGAGAAGGAGCGGAGGUCUCGUUACAACAUGAGGAUCACCCAUGUAACGUACCGUCCAGGUAGGUCGCUCUCGGGCGC [lvacmullin]
Input ligand: arginine 13.2 mM
  apparent KD of MS2 coat protein: 0.0174 µM
Input ligand: none
  apparent KD of MS2 coat protein: 0.0132 µM
[1]
  apparent KD of MS2 coat protein: 0.0244 µM
[3]
  apparent KD of MS2 coat protein: 0.0172 µM
[2]
  apparent KD of MS2 coat protein: 0.0152 µM

## CGGUUUGUGAUGGAUACCAGCAGUGUGGCUGUUUAUCCUGACAUGAGGAUCACCCAUGUGUGCCCUUGGCAGCUGUUGUGGGCUG [8.aC]
Input ligand: arginine 13.2 mM
  apparent KD of MS2 coat protein: 0.0641 µM
[1]
  apparent KD of MS2 coat protein: 0.105 µM
[2]
  apparent KD of MS2 coat protein: 0.077 µM

## ACUGACUUUACGGCCGCCACUCAUUGGCACGUGUCAUGUCAACAUGAGGAUCACCCAUGUAUGAUGAGGACCGGGUAAGGGCUGC [theeternabot_exclusion_MS2_Trp_B_2]
Input ligand: arginine 13.2 mM
  apparent KD of MS2 coat protein: 0.00871 µM
[1]
  apparent KD of MS2 coat protein: 0.013 µM
[3]
  apparent KD of MS2 coat protein: 0.011 µM
